Results published in PMC5118228 (EJNMMI Research, 2016).

Test system: tumor and normal organs of mice
Assay: Radiation dosimetry (MIRD schema, Olinda/EXM spherical S-factors)
Type: in vivo
Settings: for mean radiation absorbed tumor dose: predicted from ^111In-DOTATATE tumor uptake, AR42J tumor-bearing mice; for mean radiation absorbed dose for femur: high-dose cohort
Description: Saturation of receptor-specific tumor uptake was investigated by determining the kinetics of the tumor uptake with increasing injected mass of peptide. The time-activity curves for the tumor and normal organs were fitted by single-exponential functions using Prism-5 (GraphPad). Goodness of fit was analyzed with the Pearson correlation coefficient R ^2 > 0.8. Both F test and the Aikake information criterion were used to decide on the complexity of the curves.
Dosimetry was performed according to the MIRD schema by using the spherical nodes S-factors from the Olinda/EXM software. S-factors were interpolated from the actual weight of the organs and tissue. All organs and tissue were assumed to be spherical with a density of […]. Mean radiation absorbed doses were obtained as a function-injected mass of peptide, assuming a homogeneous distribution in the tumor and organs. […] Owing to the short path length of α-particles, only the self-dose within each organ was included. The threshold for lethality was determined with renal absorbed dose and injected activity as indicators. Logistic regression analysis was used to determine the LD50 for presumed renal toxicity-related death.

[1] = with L-lysine (35 mg), tumor-bearing mice, calculated
[2] = without L-lysine, tumor-bearing mice, calculated

SMILES: C[C@@H](O)[C@H](NC(=O)[C@@H]1CSSC[C@H](NC(=O)[C@@H](Cc2ccccc2)NC(=O)CN2CCN(CC(=O)O)CCN(CC(=O)O)CCN(CC(=O)O)CC2)C(=O)N[C@@H](Cc2ccc(O)cc2)C(=O)N[C@H](Cc2c[nH]c3ccccc23)C(=O)N[C@@H](CCCCN)C(=O)N[C@@H]([C@@H](C)O)C(=O)N1)C(=O)O [^213Bi-DOTATATE, metal not drawn]
- mean radiation absorbed tumor dose (0.1 nmol peptide): approximately 0.5 Gy/MBq
- mean radiation absorbed tumor dose (0.3 nmol peptide): approximately 0.5 Gy/MBq
- mean radiation absorbed dose for femur (with pre-treatment of L-lysine): 1.3 Gy
- mean radiation absorbed dose for femur (without L-lysine): 1.0 Gy
- mean renal absorbed dose (high-dose(+) cohort, 28.3 ± 0.8 MBq): 16 Gy
- time-integrated activity coefficient in the kidney (mice pre-treated with L-lysine): 6.0 ± 2.4 min/g
- time-integrated activity coefficient in the kidney (mice without pre-treatment of L-lysine): 12.0 ± 3.7 min/g
- renal absorbed dose (nontumor-bearing animals, with L-lysine): 0.50 Gy/MBq
- renal absorbed dose (nontumor-bearing animals, without L-lysine): 1.0 Gy/MBq
- renal absorbed dose (tumor-bearing animals, with L-lysine): 0.56 Gy/MBq
- renal absorbed dose (tumor-bearing animals, without L-lysine): 1.1 Gy/MBq
- Radiation absorbed dose per administered activity, Adrenals, Total α [1]: 5.60E-02 Gy/MBq
- Radiation absorbed dose per administered activity, Adrenals, Total β [1]: 2.00E-03 Gy/MBq
- Radiation absorbed dose per administered activity, Adrenals, ^209Pb β [1]: 1.30E-04 Gy/MBq
- Radiation absorbed dose per administered activity, Adrenals, ^209Tl β + γ [1]: 4.00E-05 Gy/MBq
- Radiation absorbed dose per administered activity, Adrenals, ^213Bi α [1]: 8.00E-04 Gy/MBq
- Radiation absorbed dose per administered activity, Adrenals, ^213Bi β [1]: 1.80E-03 Gy/MBq
- Radiation absorbed dose per administered activity, Adrenals, ^213Po α [1]: 5.49E-02 Gy/MBq
- Radiation absorbed dose per administered activity, Blood, Total α [1]: 1.09E-01 Gy/MBq
- Radiation absorbed dose per administered activity, Blood, Total β [1]: 6.00E-03 Gy/MBq
- Radiation absorbed dose per administered activity, Blood, ^209Pb β [1]: 2.00E-04 Gy/MBq
- Radiation absorbed dose per administered activity, Blood, ^209Tl β + γ [1]: 1.40E-04 Gy/MBq
- Radiation absorbed dose per administered activity, Blood, ^213Bi α [1]: 1.60E-03 Gy/MBq
- Radiation absorbed dose per administered activity, Blood, ^213Bi β [1]: 5.20E-03 Gy/MBq
- Radiation absorbed dose per administered activity, Femur, Total α [1]: 4.20E-02 Gy/MBq
- Radiation absorbed dose per administered activity, Femur, Total β [1]: 2.00E-03 Gy/MBq
- Radiation absorbed dose per administered activity, Femur, ^209Pb β [1]: 1.00E-04 Gy/MBq
- Radiation absorbed dose per administered activity, Femur, ^209Tl β + γ [1]: 4.00E-05 Gy/MBq
- Radiation absorbed dose per administered activity, Femur, ^213Bi α [1]: 6.00E-04 Gy/MBq
- Radiation absorbed dose per administered activity, Femur, ^213Bi β [1]: 1.60E-03 Gy/MBq
- Radiation absorbed dose per administered activity, Femur, ^213Po α [1]: 4.13E-02 Gy/MBq
- Radiation absorbed dose per administered activity, Kidney, Total α [1]: 5.33E-01 Gy/MBq
- Radiation absorbed dose per administered activity, Kidney, Total β [1]: 2.60E-02 Gy/MBq
- Radiation absorbed dose per administered activity, Kidney, ^209Pb β [1]: 1.40E-03 Gy/MBq
- Radiation absorbed dose per administered activity, Kidney, ^209Tl β + γ [1]: 6.30E-04 Gy/MBq
- Radiation absorbed dose per administered activity, Kidney, ^213Bi α [1]: 8.00E-03 Gy/MBq
- Radiation absorbed dose per administered activity, Kidney, ^213Bi β [1]: 2.37E-02 Gy/MBq
- Radiation absorbed dose per administered activity, Kidney, ^213Po α [1]: 5.25E-01 Gy/MBq
- Radiation absorbed dose per administered activity, Pancreas, Total α [1]: 1.36E-01 Gy/MBq
- Radiation absorbed dose per administered activity, Pancreas, Total β [1]: 5.00E-03 Gy/MBq
- Radiation absorbed dose per administered activity, Pancreas, ^209Pb β [1]: 8.90E-04 Gy/MBq
- Radiation absorbed dose per administered activity, Pancreas, ^209Tl β + γ [1]: 1.00E-04 Gy/MBq
- Radiation absorbed dose per administered activity, Pancreas, ^213Bi α [1]: 2.00E-03 Gy/MBq
- Radiation absorbed dose per administered activity, Pancreas, ^213Bi β [1]: 4.50E-03 Gy/MBq
- Radiation absorbed dose per administered activity, Pancreas, ^213Po α [1]: 1.34E-01 Gy/MBq
- Radiation absorbed dose per administered activity, Stomach, Total α [1]: 6.10E-02 Gy/MBq
- Radiation absorbed dose per administered activity, Stomach, Total β [1]: 3.00E-03 Gy/MBq
- Radiation absorbed dose per administered activity, Stomach, ^209Pb β [1]: 2.20E-04 Gy/MBq
- Radiation absorbed dose per administered activity, Stomach, ^209Tl β + γ [1]: 7.00E-05 Gy/MBq
- Radiation absorbed dose per administered activity, Stomach, ^213Bi α [1]: 9.00E-04 Gy/MBq
- Radiation absorbed dose per administered activity, Stomach, ^213Bi β [1]: 2.60E-03 Gy/MBq
- Radiation absorbed dose per administered activity, Stomach, ^213Po α [1]: 6.00E-02 Gy/MBq
- Radiation absorbed dose per administered activity, Tumor, Total α [1]: 6.14E-01 Gy/MBq
- Radiation absorbed dose per administered activity, Tumor, Total β [1]: 4.40E-02 Gy/MBq
- Radiation absorbed dose per administered activity, Tumor, ^209Pb β [1]: 1.41E-02 Gy/MBq
- Radiation absorbed dose per administered activity, Tumor, ^209Tl β + γ [1]: 8.60E-04 Gy/MBq
- Radiation absorbed dose per administered activity, Tumor, ^213Bi α [1]: 9.20E-03 Gy/MBq
- Radiation absorbed dose per administered activity, Tumor, ^213Bi β [1]: 2.87E-02 Gy/MBq
- Radiation absorbed dose per administered activity, Tumor, ^213Po α [1]: 6.05E-01 Gy/MBq
- Radiation absorbed dose per administered activity, Adrenals, Total α [2]: 3.60E-02 Gy/MBq
- Radiation absorbed dose per administered activity, Adrenals, Total β [2]: 2.00E-03 Gy/MBq
- Radiation absorbed dose per administered activity, Adrenals, ^209Pb β [2]: 2.00E-04 Gy/MBq
- Radiation absorbed dose per administered activity, Adrenals, ^209Tl β + γ [2]: 2.00E-05 Gy/MBq
- Radiation absorbed dose per administered activity, Adrenals, ^213Bi α [2]: 5.00E-04 Gy/MBq
- Radiation absorbed dose per administered activity, Adrenals, ^213Bi β [2]: 1.50E-03 Gy/MBq
- Radiation absorbed dose per administered activity, Adrenals, ^213Po α [2]: 3.56E-02 Gy/MBq
- Radiation absorbed dose per administered activity, Blood, Total α [2]: 9.00E-02 Gy/MBq
- Radiation absorbed dose per administered activity, Blood, Total β [2]: 5.00E-03 Gy/MBq
- Radiation absorbed dose per administered activity, Blood, ^209Pb β [2]: 1.60E-04 Gy/MBq
- Radiation absorbed dose per administered activity, Blood, ^209Tl β + γ [2]: 1.20E-04 Gy/MBq
- Radiation absorbed dose per administered activity, Blood, ^213Bi α [2]: 1.30E-03 Gy/MBq
- Radiation absorbed dose per administered activity, Blood, ^213Bi β [2]: 4.30E-03 Gy/MBq
- Radiation absorbed dose per administered activity, Blood, ^213Po α [2]: 8.80E-02 Gy/MBq
- Radiation absorbed dose per administered activity, Femur, Total α [2]: 3.20E-02 Gy/MBq
- Radiation absorbed dose per administered activity, Femur, Total β [2]: 1.00E-03 Gy/MBq
- Radiation absorbed dose per administered activity, Femur, ^209Pb β [2]: 1.00E-04 Gy/MBq
- Radiation absorbed dose per administered activity, Femur, ^209Tl β + γ [2]: 3.00E-05 Gy/MBq
- Radiation absorbed dose per administered activity, Femur, ^213Bi α [2]: 5.00E-04 Gy/MBq
- Radiation absorbed dose per administered activity, Femur, ^213Bi β [2]: 1.30E-03 Gy/MBq
- Radiation absorbed dose per administered activity, Femur, ^213Po α [2]: 3.16E-02 Gy/MBq
- Radiation absorbed dose per administered activity, Kidney, Total α [2]: 1.07E+00 Gy/MBq
- Radiation absorbed dose per administered activity, Kidney, Total β [2]: 5.50E-02 Gy/MBq
- Radiation absorbed dose per administered activity, Kidney, ^209Pb β [2]: 6.20E-03 Gy/MBq
- Radiation absorbed dose per administered activity, Kidney, ^209Tl β + γ [2]: 1.30E-03 Gy/MBq
- Radiation absorbed dose per administered activity, Kidney, ^213Bi α [2]: 1.61E-02 Gy/MBq
- Radiation absorbed dose per administered activity, Kidney, ^213Bi β [2]: 4.71E-02 Gy/MBq
- Radiation absorbed dose per administered activity, Pancreas, Total α [2]: 1.34E-01 Gy/MBq
- Radiation absorbed dose per administered activity, Pancreas, Total β [2]: 5.00E-03 Gy/MBq
- Radiation absorbed dose per administered activity, Pancreas, ^209Pb β [2]: 7.00E-04 Gy/MBq
- Radiation absorbed dose per administered activity, Pancreas, ^209Tl β + γ [2]: 1.00E-04 Gy/MBq
- Radiation absorbed dose per administered activity, Pancreas, ^213Bi α [2]: 2.00E-03 Gy/MBq
- Radiation absorbed dose per administered activity, Pancreas, ^213Bi β [2]: 4.50E-03 Gy/MBq
- Radiation absorbed dose per administered activity, Pancreas, ^213Po α [2]: 1.32E-01 Gy/MBq
- Radiation absorbed dose per administered activity, Stomach, Total α [2]: 9.00E-02 Gy/MBq
- Radiation absorbed dose per administered activity, Stomach, Total β [2]: 5.00E-03 Gy/MBq
- Radiation absorbed dose per administered activity, Stomach, ^209Pb β [2]: 5.90E-04 Gy/MBq
- Radiation absorbed dose per administered activity, Stomach, ^209Tl β + γ [2]: 1.10E-04 Gy/MBq
- Radiation absorbed dose per administered activity, Stomach, ^213Bi α [2]: 1.30E-03 Gy/MBq
- Radiation absorbed dose per administered activity, Stomach, ^213Bi β [2]: 3.90E-03 Gy/MBq
- Radiation absorbed dose per administered activity, Stomach, ^213Po α [2]: 8.84E-02 Gy/MBq
- Radiation absorbed dose per administered activity, Tumor, Total α [2]: 6.61E-01 Gy/MBq
- Radiation absorbed dose per administered activity, Tumor, Total β [2]: 4.80E-02 Gy/MBq
- Radiation absorbed dose per administered activity, Tumor, ^209Pb β [2]: 1.58E-02 Gy/MBq
- Radiation absorbed dose per administered activity, Tumor, ^209Tl β + γ [2]: 9.60E-04 Gy/MBq
- Radiation absorbed dose per administered activity, Tumor, ^213Bi α [2]: 9.90E-03 Gy/MBq
- Radiation absorbed dose per administered activity, Tumor, ^213Bi β [2]: 3.14E-02 Gy/MBq
- Radiation absorbed dose per administered activity, Tumor, ^213Po α [2]: 6.51E-01 Gy/MBq
